# Values quoted from earlier work as cited in paper PMC3334866.
# Target: Vinculin D1 (UniProt P18206)
# Sequence of UniProt P18206 (P18206 1-258): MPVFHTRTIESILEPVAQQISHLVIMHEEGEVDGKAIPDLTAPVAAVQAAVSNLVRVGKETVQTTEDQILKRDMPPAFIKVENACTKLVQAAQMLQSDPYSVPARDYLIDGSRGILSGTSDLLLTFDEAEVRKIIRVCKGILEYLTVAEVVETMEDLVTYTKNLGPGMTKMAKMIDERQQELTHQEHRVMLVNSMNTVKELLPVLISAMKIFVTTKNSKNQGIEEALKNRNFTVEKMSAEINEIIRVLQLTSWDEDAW
substance,measurement,value
IpaA peptide (from UniProt P18010),Kd,< 1 nM
